The text below walks through data of paper PMC10694607.

Assay in all cases: BLI
For orientation: In BLI a coated tip is dipped into the sample, and binding shifts an interference pattern.

The target in experiment [1] is TRIM21–ME2 fusion protein (human) (UniProt P19474).
Experiment [2] addresses TRIM21–MH4 fusion protein (human) (UniProt P19474).
Experiment [3] addresses TRIM21–MC1 fusion protein (human) (UniProt P19474).

The term Kd denotes a measure of binding affinity in units of concentration. Read a high Kd as weaker binding. Turning to “recombinant MALT1 (BPS Bioscience), analyte in BLI (from UniProt Q9UDY8 1-824) (natural protein)”, the Kd in experiment [1] is 753 nM; in experiment [2], 148 nM; in experiment [3], 475 nM.
